The source of these data is ChEMBL document CHEMBL1155874, “Carbonic anhydrase activators: Activation of the human cytosolic isozyme III and membrane-associated isoform IV with amino acids and amines” (Bioorg Med Chem Lett, 2008).

Substrate in data set [1]: N[C@H](Cc1c[nH]cn1)C(=O)O
Put plainly: (§1) Activity of human recombinant truncated CA4 at 10 uM stopped-flow CO2 hydration method.

Substrate in data set [2]: N[C@@H](Cc1c[nH]cn1)C(=O)O
The data set is described as §1.

Substrate in data set [3]: N[C@H](Cc1c[nH]cn1)C(=O)O
Put plainly: (§2) Activity of human recombinant CA3 at 10 uM stopped-flow CO2 hydration method.

Substrate in data set [4]: N[C@@H](Cc1c[nH]cn1)C(=O)O
The data set is described as §2.

B1: Carbonic anhydrase 4 (Homo sapiens), P22748 (protein)
chain: MRMLLALLALSAARPSASAESHWCYEVQAESSNYPCLVPVKWGGNCQKDRQSPINIVTTKAKVDKKLGRFFFSGYDKKQTWTVQNNGHSVMMLLENKASISGGGLPAPYQAKQLHLHWSDLPYKGSEHSLDGEHFAMEMHIVHEKEKGTSRNVKEAQDPEDEIAVLAFLVEAGTQVNEGFQPLVEALSNIPKPEMSTTMAESSLLDLLPKEEKLRHYFRYLGSLTTPTCDEKVVWTVFREPIQLHREQILAFSQKLYYDKEQTVSMKDNVRPLQQLGQRTVIKSGAPGRPLPWALPALLGPMLACLLAGFLR
As for B1, the values for the kcat in data set [1] and in data set [2] were 3.8 ×10⁶ /s and 4.3 ×10⁶ /s, respectively.

B2: Carbonic anhydrase 3 (Homo sapiens), P07451 (protein)
chain: MAKEWGYASHNGPDHWHELFPNAKGENQSPVELHTKDIRHDPSLQPWSVSYDGGSAKTILNNGKTCRVVFDDTYDRSMLRGGPLPGPYRLRQFHLHWGSSDDHGSEHTVDGVKYAAELHLVHWNPKYNTFKEALKQRDGIAVIGIFLKIGHENGEFQIFLDALDKIKTKGKEAPFTKFDPSCLFPACRDYWTYQGSFTTPPCEECIVWLLLKEPMTVSSDQMAKLRSLLSSAENEPPVPLVSNWRPPQPINNRVVRASFK
As to B2, the results for the kcat in data set [3] and in data set [4] were 16.9 ×10⁴ /s and 1.8 ×10⁴ /s, respectively.
